In general, Kd refers to the constant that tells how readily two partners part at equilibrium. A high value points to lower affinity. A word on the koff: it is a measure of how fast the partners let go of each other. Read a low koff as a long-lived complex. As a reminder, the kon is a measure of how fast the partners come together. A low value points to slow association.

Among the data in publication PMC7416112 (Structure(London, England:1993), 2020) are Kd, koff and kon values, retold here.

Assay in all cases: BLI
For orientation: Biolayer interferometry detects binding as a change in optical thickness at a sensor tip.

The target in test [1] is BG505 SOSIP.v4.1-2XStrep (N332) (HIV-1 (BG505)).
The target in test [2] is BG505 SOSIP.v4.1-2XStrep N332 N295Q (HIV-1 (BG505)).
In test [3] the target is BG505 SOSIP.v4.1-2XStrep N332 N339Q (HIV-1 (BG505)).
In test [4] the target is BG505 SOSIP.v4.1-2XStrep N332 N363Q (HIV-1 (BG505)).
Test [5] deals with BG505 SOSIP.v4.1-2XStrep N332 N386Q (HIV-1 (BG505)).
The target of test [6] is BG505 SOSIP.v4.1-2XStrep N332 N392Q (HIV-1 (BG505)).
For test [7], the target named is BG505 SOSIP.v4.1-2XStrep T332 (HIV-1 subtype A, BG505, UniProt Q2N0S6, stabilised). The following applies: both partners purified.

On to 2G12 Fab2, for which the Kd worked out at 4.25 nM in test [1]; 11.4 nM in test [2]; 7.35 nM in test [3]; 3.99 nM in test [4]; 3.15 nM in test [5]; 16.8 nM in test [6].

B1: 2G12 Fab2 (Fab, V domains shown)
VH: EVQLVESGGGLVKAGGSLILSCGVSNFRISAHTMNWVRRVPGGGLEWVASISTSSTYRDYADAVKGRFTVSRDDLEDFVYLQMHKMRVEDTAIYYCARKGSDRLSDNDPFDAWGPGTVVTVSP
VL: DVVMTQSPSTLSASVGDTITITCRASQSIETWLAWYQQKPGKAPKLLIYKASTLKTGVPSRFSGSGSGTEFTLTISGLQFDDFATYHCQHYAGYSATFGQGTRVEIK
notes: also called 2G12 bnAb; copies: 2 + 2
In test [7], B1 had a Kd of 22.9 nM, a koff of 0.00558 s⁻¹ and a kon of 244000 M⁻¹ s⁻¹.
